Measurements reported in publication PMC11353242.

Experiments:
Assay in all cases: pull-down; GFP-CEP55 proteins (355 nM) bound to GFP-Trap Magnetic Agarose beads; taxol-polymerised MTs (545 nM tubulin), pH adapted to 7.5, incubated 1 h at 4 °C; 6 washes; bound MTs detected by Western blot against β tubulin; MTs bound to CEP55^FL set as 100%
[1] = target: His-GFP-CEP55^59–428 (N- and C-termini deleted) (UniProt Q53EZ4)
[2] = target: His-GFP-CEP55^59–464 (N-terminus, aa 1–58, deleted) (UniProt Q53EZ4)
[3] = target: His-GFP-CEP55^1–428 (C-terminus, aa 429–464, deleted) (UniProt Q53EZ4)

“Microtubules polymerised with taxol from tubulin prepared from porcine brain (from UniProt P02550 1-451; Q767L7 1-444) (complex)” was tested, and the percent reduction of MT binding against CEP55^FL [1] was 60%, the percent reduction of MT binding against CEP55^FL [2] was 20% and the percent reduction of MT binding against CEP55^FL [3] was 20%.
